According to US20260242449A1 (INTERNATIONAL AIDS VACCINE INITIATIVE, published 2026):

B1: BiS13 (bispecific antibody)
heavy: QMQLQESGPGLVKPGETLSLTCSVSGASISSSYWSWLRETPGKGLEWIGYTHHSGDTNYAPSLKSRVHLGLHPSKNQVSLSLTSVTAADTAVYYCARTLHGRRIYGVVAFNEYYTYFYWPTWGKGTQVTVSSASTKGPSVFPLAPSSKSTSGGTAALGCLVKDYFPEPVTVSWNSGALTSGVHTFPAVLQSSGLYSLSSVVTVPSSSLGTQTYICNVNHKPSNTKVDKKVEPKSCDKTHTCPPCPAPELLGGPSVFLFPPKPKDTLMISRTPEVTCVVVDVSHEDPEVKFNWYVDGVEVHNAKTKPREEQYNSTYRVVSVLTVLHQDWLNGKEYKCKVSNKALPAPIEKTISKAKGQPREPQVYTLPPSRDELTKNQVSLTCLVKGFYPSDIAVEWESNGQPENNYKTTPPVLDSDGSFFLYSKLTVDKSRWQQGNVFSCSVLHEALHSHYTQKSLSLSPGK
light: ALTQPRSVSASPGQSVTISCTGTHNLVSWCQHQPGRAPKLLIYDFNKRPSGVPDRFSGSGSGGTASLTITGLQDDDDAEYFCWAYEAFGGGTKLTVLGQGGGGSGGGGSGGGGSADLVQSGAVVKKPGDSVRISCEAQGYRFPDYIIHWIRRAPGQGPEWMGWMNPMGGQVNIPWKFQGRVSMTRDTSIETAFLDLRGLKSDDTAVYYCVRDRSNGSGKRFESSNWFLDLWGRGTAVTIQSGGGGSGGGGSGGGGSGGGGSGGGGSDISVAPGETVRITCGGESIGSRAVQWYQHRPGQAPRLIIYNNQDRPPGIPERFSGSPDIDFGTTATLTISNVEAGDEATYYCHIWDSRRPTNWELGPGTTLTVLGQPKAAPSVTLFPPSSEELQANKATLVCLISDFYPGAVTVAWKADSSPVKAGVETTTPSKQSNNKYAASSYLSLTPEQWKSHKSYSCQVTHEGSTVEKTVAPTECS
B2: N49P7 (antibody, V domains shown)
VH: ADLVQSGAVVKKPGDSVRISCEAQGYRFPDYIIHWIRRAPGQGPEWMGWMNPMGGQVNIPWKFQGRVSMTRDTSIETAFLDLRGLKSDDTAVYYCVRDRSNGSGKRFESSNWFLDLWGRGTAVTIQS
VL: ALTQPRSVSASPGQSVTISCTGTHNLVSWCQHQPGRAPKLLIYDFNKRPSGVPDRFSGSGSGGTASLTITGLQDDDDAEYFCWAYEAFGGGTKLTVL
B3: ePGT121 (antibody, V domains shown)
VH: QMQLQESGPGLVKPGETLSLTCSVSGASISSSYWSWLRETPGKGLEWIGYTHHSGDTNYAPSLKSRVHLGLHPSKNQVSLSLTSVTAADTAVYYCARTLHGRRIYGVVAFNEYYTYFYWPTWGKGTQVTVSS
VL: SDISVAPGETVRITCGGESIGSRAVQWYQHRPGQAPRLIIYNNQDRPPGIPERFSGSPDIDFGTTATLTISNVEAGDEATYYCHIWDSRRPTNWELGPGTTLTVLG

Key:
Assay in all cases: cell-based or functional assay
[1] = target: HIV-1 Env of pseudovirus 3016.v5.c45 (clade D) (HIV-1)
[2] = target: HIV-1 Env of pseudovirus 6545.V4.C1 (clade AC) (HIV-1)
[3] = target: HIV-1 Env of pseudovirus QH0692.42-N332A (clade B) (HIV-1)
[4] = target: HIV-1 Env of pseudovirus CAP45.G3 (clade C) (HIV-1)
[5] = target: HIV-1 Env of pseudovirus BJOX010000.06.2 (clade AE (T/F)) (HIV-1)
[6] = target: HIV-1 Env of pseudovirus X1632.S2.B10 (clade G) (HIV-1)
[7] = target: HIV-1 Env of pseudovirus CNE8 (clade AE) (HIV-1)
[8] = target: HIV-1 Env of pseudovirus BJOX009000.02.4 (clade AE) (HIV-1)
[9] = target: HIV-1 Env of pseudovirus TRO.11-N332A (clade B) (HIV-1)
[10] = target: HIV-1 Env of pseudovirus 231965.c01 (clade D) (HIV-1)
[11] = target: HIV-1 Env of pseudovirus Q259.17 (clade A) (HIV-1)
[12] = target: HIV-1 Env of pseudovirus MS208.A1 (clade A) (HIV-1)
[13] = target: HIV-1 Env of pseudovirus T257-31 (clade AG) (HIV-1)

Binder	Pseudovirus neutralization IC80 (TZM-bl luciferase) [1]	Pseudovirus neutralization IC80 (TZM-bl luciferase) [2]	Pseudovirus neutralization IC80 (TZM-bl luciferase) [3]	Pseudovirus neutralization IC80 (TZM-bl luciferase) [4]	Pseudovirus neutralization IC80 (TZM-bl luciferase) [5]	Pseudovirus neutralization IC80 (TZM-bl luciferase) [6]	Pseudovirus neutralization IC80 (TZM-bl luciferase) [7]	Pseudovirus neutralization IC80 (TZM-bl luciferase) [8]	Pseudovirus neutralization IC80 (TZM-bl luciferase) [9]	Pseudovirus neutralization IC80 (TZM-bl luciferase) [10]	Pseudovirus neutralization IC80 (TZM-bl luciferase) [11]	Pseudovirus neutralization IC80 (TZM-bl luciferase) [12]	Pseudovirus neutralization IC80 (TZM-bl luciferase) [13]
B1	0.0156 µg/mL	< 0.0001 µg/mL	0.0311 µg/mL	0.0021 µg/mL	0.172 µg/mL	0.06 µg/mL	0.137 µg/mL	0.0096 µg/mL	0.0054 µg/mL	0.0157 µg/mL	0.0114 µg/mL	0.0998 µg/mL	
B2	0.516 µg/mL	1.76 µg/mL	0.35 µg/mL	0.112 µg/mL	0.453 µg/mL	0.27 µg/mL	0.175 µg/mL	0.0999 µg/mL	0.0622 µg/mL	0.196 µg/mL	0.163 µg/mL	0.194 µg/mL	0.577 µg/mL
B3	> 50 µg/mL	> 50 µg/mL	> 50 µg/mL	5.78 µg/mL	> 50 µg/mL	> 50 µg/mL	> 50 µg/mL	0.0428 µg/mL	1.35 µg/mL	> 50 µg/mL	> 50 µg/mL	> 50 µg/mL	> 50 µg/mL
